± gives the uncertainty stated by the source.
Assay: self-splicing fitness, log relative to wild type (ln ratio); higher = more splicing; Tetrahymena group I intron in knt gene, E. coli kanamycin selection, DiMSum; sequences stand for … in CUCUCU…GGAGGGAAAAGUUAUCAGGCAUGCACCUGGUAGCUAGUCUUUAAACCAAUAGAUUGCAUCGGUUUAAAAGGCAAGACCGUCAAAUUGCGGGAAAGGGGUCAACAGCCGUUCAGUACCAAGUCUCAGGGGAAACUUUGAGAUGGCCUUGCAAAGGGUAUGGUAAUAAGCUGACGGACAUGGUCCUAACCACGCAGCCAAGUCCUAAGUCAACAGAUCUUCUGUUGAUAUGGAUGCAGUUCACAGACUAAAUGUCGGUCGGGGAAGAUGUAUUCUUCUCAUAAGAUAUAGUCGGACCUCUCCUUAAUGGGAGCUAGCGGAUGAAGUGAUGCAACACUGGAGCCGCUGGGAACUAAUUUGUAUGCGAAAGUAUAUUGAUUAGUUUUGGAGUACUCGUGGUCG
Outline: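 Colonies from six replicate transformations of E. coli BL21(DE3) were pooled and amplicon-sequenced on an Illumina HiSeq 2500. The library placed an intron with all eight P1ex-region nucleotides randomised inside the knt kanamycin-resistance gene on pET-22b(+), and cells grew overnight at 37°C or 30°C on LB agar with or without 25 μg/mL kanamycin (plus 100 μg/mL carbenicillin, 50 μM IPTG, 0.2% rhamnose). Fitness is the DiMSum error-weighted combination of wild-type-normalised replicate fold changes, kanamycin versus none.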

| Sequence | self-splicing fitness (ln) (30 °C) | self-splicing fitness (ln) (37 °C) |
| --- | --- | --- |
| ACCUAGCAAUAUUACGUUAA | -2.38 ± 0.14 | -1.9 ± 0.17 |
| ACCUAGCAAUAUUACGUUGC | -2.21 ± 0.1 | -1.56 ± 0.14 |
| ACGAAGCAAUAUUACGAAAA | -3.5 ± 0.43 | -2.78 ± 0.43 |
| ACGAAGCAAUAUUACGAGUG | -2.77 ± 0.1 | -2.29 ± 0.11 |
| ACGAAGCAAUAUUACGCAAU | -1.6 ± 0.091 | -1.42 ± 0.094 |
| ACGAAGCAAUAUUACGCACA | -0.494 ± 0.096 | -0.0286 ± 0.098 |
| ACGAAGCAAUAUUACGCAUC | -3.54 ± 0.18 | -3.42 ± 0.3 |
| ACGAAGCAAUAUUACGCGAU | -2.21 ± 0.13 | -0.777 ± 0.14 |
| ACGAAGCAAUAUUACGCUAG | -1.5 ± 0.084 | -0.372 ± 0.11 |
| ACGAAGCAAUAUUACGCUCC | -2.06 ± 0.42 | -0.416 ± 0.41 |
| ACGAAGCAAUAUUACGGAGC | -3.94 ± 0.27 | -1.29 ± 0.23 |
| ACGAAGCAAUAUUACGGCGG | -0.224 ± 0.089 | 0.0437 ± 0.13 |
| ACGAAGCAAUAUUACGGGGG | -2.58 ± 0.15 | -2.27 ± 0.25 |
| ACGAAGCAAUAUUACGGUAG | -2.36 ± 0.15 | -2.22 ± 0.22 |
| ACGAAGCAAUAUUACGGUCG | -0.954 ± 0.066 | -0.311 ± 0.082 |
| ACGAAGCAAUAUUACGUCCG | -0.464 ± 0.097 | -0.122 ± 0.12 |
| ACGAAGCAAUAUUACGUGUA | -2.15 ± 0.058 | -1.24 ± 0.058 |
| ACGAAGCAAUAUUACGUUCA | -1.14 ± 0.05 | -0.417 ± 0.057 |
| ACGCAGCAAUAUUACGACAA | -1.61 ± 0.12 | -0.427 ± 0.097 |
| ACGCAGCAAUAUUACGACCG | -0.348 ± 0.15 | -0.0722 ± 0.19 |
| ACGCAGCAAUAUUACGACCU | 0.0699 ± 0.061 | 0.401 ± 0.073 |

| Sequence | self-splicing fitness (ln) (30 °C) | self-splicing fitness (ln) (37 °C) |
| --- | --- | --- |
| ACGCAGCAAUAUUACGAGCA | -1.58 ± 0.096 | -1.2 ± 0.11 |
| ACGCAGCAAUAUUACGAUAU | -2.42 ± 0.096 | -1.02 ± 0.12 |
| ACGCAGCAAUAUUACGAUUU | -1.01 ± 0.081 | -0.413 ± 0.1 |
| ACGCAGCAAUAUUACGCAUG | -3.56 ± 0.14 | -2.57 ± 0.21 |
| ACGCAGCAAUAUUACGCCAA | -3.3 ± 0.2 | -1.75 ± 0.17 |
| ACGCAGCAAUAUUACGCCGA | -1.23 ± 0.099 | -0.977 ± 0.094 |
| ACGCAGCAAUAUUACGCUAA | -1.79 ± 0.08 | -0.352 ± 0.081 |
| ACGCAGCAAUAUUACGGACU | -0.613 ± 0.081 | 0.0817 ± 0.098 |
| ACGCAGCAAUAUUACGGAGG | -3.65 ± 0.15 | -1.84 ± 0.12 |
| ACGCAGCAAUAUUACGGCUA | -0.12 ± 0.064 | -0.215 ± 0.075 |
| ACGCAGCAAUAUUACGGGAC | -3.2 ± 0.22 | -1.84 ± 0.2 |
| ACGCAGCAAUAUUACGGGGG | -3.86 ± 0.2 | -2.54 ± 0.19 |
| ACGCAGCAAUAUUACGUAGA | -2.99 ± 0.16 | -2.53 ± 0.21 |
| ACGCAGCAAUAUUACGUAUG | -4.32 ± 0.22 | -2.54 ± 0.16 |
| ACGCAGCAAUAUUACGUCUG | -2.44 ± 0.14 | -2.5 ± 0.28 |
| ACGCAGCAAUAUUACGUGAA | -2.62 ± 0.15 | -1.01 ± 0.13 |
| ACGCAGCAAUAUUACGUGCA | -1.58 ± 0.076 | -0.0655 ± 0.083 |
| ACGCAGCAAUAUUACGUGUA | -2.93 ± 0.11 | -1.6 ± 0.082 |
| ACGCAGCAAUAUUACGUUAU | -3.13 ± 0.12 | -2.12 ± 0.15 |
| ACGGAGCAAUAUUACGAGCA | -3.2 ± 0.34 | – |
| ACGGAGCAAUAUUACGAGCG | -2.76 ± 0.28 | -1.59 ± 0.2 |

From the supplement of paper PMC7877785
